This passage reports Ki results from PMC2835468 (Matrix biology : journal of the International Society for …, 2009).

What all share (assay): enzyme inhibition kinetics
Assay [1] has as its target T1, ADAMTS4-1 (full-length human ADAMTS-4, C-terminal FLAG-tag) (human, UniProt O75173 213-837).
T1 sequence (looked up): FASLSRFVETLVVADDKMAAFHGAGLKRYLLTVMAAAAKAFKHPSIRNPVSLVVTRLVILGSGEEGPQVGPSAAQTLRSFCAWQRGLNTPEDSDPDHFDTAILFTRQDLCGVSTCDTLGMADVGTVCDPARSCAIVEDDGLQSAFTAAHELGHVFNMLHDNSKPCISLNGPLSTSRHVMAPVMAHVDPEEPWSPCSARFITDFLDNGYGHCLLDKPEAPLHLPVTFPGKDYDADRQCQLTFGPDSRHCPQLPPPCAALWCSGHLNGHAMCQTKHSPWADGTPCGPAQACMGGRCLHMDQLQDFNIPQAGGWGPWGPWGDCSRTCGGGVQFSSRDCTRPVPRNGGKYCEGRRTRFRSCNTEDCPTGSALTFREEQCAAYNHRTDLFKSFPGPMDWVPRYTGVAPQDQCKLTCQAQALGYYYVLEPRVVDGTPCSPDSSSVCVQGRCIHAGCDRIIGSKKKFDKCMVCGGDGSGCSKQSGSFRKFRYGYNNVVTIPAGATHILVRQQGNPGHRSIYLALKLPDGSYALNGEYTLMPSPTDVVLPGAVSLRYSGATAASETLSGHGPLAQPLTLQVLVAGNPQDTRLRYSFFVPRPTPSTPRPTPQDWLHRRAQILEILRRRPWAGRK

Assay [2] concerns the target T2, ADAMTS4-2 (human ADAMTS-4 deletion mutant, C-terminal FLAG-tag) (human, UniProt O75173 213-685).
T2 sequence (looked up): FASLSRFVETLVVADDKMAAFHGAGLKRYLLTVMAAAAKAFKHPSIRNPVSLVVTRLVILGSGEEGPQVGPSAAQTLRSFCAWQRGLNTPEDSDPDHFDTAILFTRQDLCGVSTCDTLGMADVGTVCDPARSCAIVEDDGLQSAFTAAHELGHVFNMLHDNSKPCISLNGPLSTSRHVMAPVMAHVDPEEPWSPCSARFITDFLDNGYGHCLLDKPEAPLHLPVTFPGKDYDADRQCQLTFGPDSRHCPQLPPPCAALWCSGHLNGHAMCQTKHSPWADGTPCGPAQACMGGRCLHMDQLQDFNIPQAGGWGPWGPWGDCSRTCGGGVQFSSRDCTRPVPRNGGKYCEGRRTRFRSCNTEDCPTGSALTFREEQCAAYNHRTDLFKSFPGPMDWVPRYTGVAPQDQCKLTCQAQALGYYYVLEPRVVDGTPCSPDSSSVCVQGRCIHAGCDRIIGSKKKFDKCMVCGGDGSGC

Assay [3] deals with T3, ADAMTS4-3 (human ADAMTS-4 deletion mutant, C-terminal FLAG-tag) (human, UniProt O75173 213-575).
T3 sequence (looked up): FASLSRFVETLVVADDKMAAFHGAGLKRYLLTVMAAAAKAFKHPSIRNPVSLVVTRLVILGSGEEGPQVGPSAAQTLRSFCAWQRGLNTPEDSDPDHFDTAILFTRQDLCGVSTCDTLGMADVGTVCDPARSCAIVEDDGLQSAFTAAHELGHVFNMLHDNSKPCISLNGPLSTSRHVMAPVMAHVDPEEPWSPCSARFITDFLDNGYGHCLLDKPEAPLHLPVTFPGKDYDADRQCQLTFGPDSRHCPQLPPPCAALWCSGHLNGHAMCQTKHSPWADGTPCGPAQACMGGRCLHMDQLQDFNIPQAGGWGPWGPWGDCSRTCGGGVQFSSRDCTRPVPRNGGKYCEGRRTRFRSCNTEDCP

The target of assay [4] is T4, ADAMTS4-4 (human ADAMTS-4 deletion mutant, C-terminal FLAG-tag) (human, UniProt O75173 213-519).
T4 sequence (looked up): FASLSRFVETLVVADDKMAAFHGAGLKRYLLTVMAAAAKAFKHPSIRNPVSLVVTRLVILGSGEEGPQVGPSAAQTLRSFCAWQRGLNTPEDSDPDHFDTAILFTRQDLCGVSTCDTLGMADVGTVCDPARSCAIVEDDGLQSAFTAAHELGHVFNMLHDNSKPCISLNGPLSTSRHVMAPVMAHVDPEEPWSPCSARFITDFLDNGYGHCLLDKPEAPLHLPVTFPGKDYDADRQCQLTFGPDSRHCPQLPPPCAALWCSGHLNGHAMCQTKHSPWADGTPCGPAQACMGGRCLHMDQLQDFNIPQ

B1: FLAG-tagged glycosylated human TIMP-3 (full-length tissue inhibitor of metalloproteinases 3), expressed in HEK293 (natural protein, UniProt P35625 24-211, looked up)
chain: CTCSPSHPQDAFCNSDIVIRAKVVGKKLVKEGPFGTLVYTIKQMKMYRGFTKMPHVQYIHTEASESLCGLKLEVNKYQYLLTGRVYDGKMYTGLCNFVERWDQLTLSQRKGLNYRYHLGCNCKIKSCYYLPCFVTSKNECLWTDMLSNFGYPGYQSKHYACIRQKGGYCSWYRGWAPPDKSIINATDP
modifications: glycosylated (only the 27 kDa glycosylated form remained after purification; single N-glycosylation site in the C-terminal domain)
A word on the Ki: it is a measure of affinity in units of concentration, obtained from inhibition or displacement. As for B1, the inhibition constant (Ki) came out at 220 pM in assay [1], 220 pM in assay [2], 400 pM in assay [3] and 510 pM in assay [4].
